{"source": "paper PMC2865256", "about": "(Journal of immunology (Baltimore, Md. : 1950), 2009)", "binders": {"B1": {"name": "mouse BTLA-Fc (Fc fusion, UniProt Q7TSA3 30-183, looked up)", "chain": "EKATKRNDEECPVQLTITRNSKQSARTGELFKIQCPVKYCVHRPNVTWCKHNGTICVPLEVSPQLYTSWEENQSVPVFVLHFKPIHLSDNGSYSCSTNFNSQVINSHSVTIHVRERTQNSSEHPLITVSDIPDATNASGPSTMEERPGRTWLLY"}}, "target": "T1, mouse HVEM on splenic T cells (mouse (endogenous in splenic T cells), UniProt Q80WM9 39-275)", "T1 sequence (looked up)": "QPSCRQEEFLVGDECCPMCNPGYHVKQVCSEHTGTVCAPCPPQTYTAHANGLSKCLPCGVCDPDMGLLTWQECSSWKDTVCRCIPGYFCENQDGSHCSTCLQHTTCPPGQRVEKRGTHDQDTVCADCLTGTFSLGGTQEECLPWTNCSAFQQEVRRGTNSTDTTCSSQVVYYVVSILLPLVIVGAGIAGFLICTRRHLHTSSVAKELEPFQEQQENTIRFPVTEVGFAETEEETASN", "assay": "flow cytometry on cells"}
{"binder": "B1", "values": [{"measurement": "MFI ratio of Btla-/- T cells to WT T cells", "result": 4.4}]}
